From patent US20070020257A1

Biological target: integrins on cell surface of mucosae
Assay: cell-based or functional assay

Binder	Titer against PAc (intranasal RGD-DUP given together with an excess of RGDS peptide as inhibitor) (titer (maximum serum dilution))	Titer against PAc (serum of BALB/c mice after intranasal administration of RGD-DUP) (titer (maximum serum dilution))	Titer against PAc (intranasal YIGSR-DUP given together with an excess of YIGSR peptide as inhibitor) (titer (maximum serum dilution))	Titer against PAc (serum of BALB/c mice after intranasal administration of YIGSR-DUP) (titer (maximum serum dilution))
RGDTYEAALKQYEADLKKTYEAALKQYEADL [RGD-DUP (di unit peptide with the cell attachment motif RGD at the N-terminal region)]	256	5070	–	–
YIGSRTYEAALKQYEADLKKTYEAALKQYEADL [YIGSR-DUP (di unit peptide with the cell attachment motif YIGSR at the N-terminal region)]	–	–	235	1200
